The test deals with human PD-1 on Jurkat cells (human, UniProt Q15116 25-288). The test is described as follows: cell-based or functional assay.
Chain of human PD-1 on Jurkat cells (Q15116 25-288): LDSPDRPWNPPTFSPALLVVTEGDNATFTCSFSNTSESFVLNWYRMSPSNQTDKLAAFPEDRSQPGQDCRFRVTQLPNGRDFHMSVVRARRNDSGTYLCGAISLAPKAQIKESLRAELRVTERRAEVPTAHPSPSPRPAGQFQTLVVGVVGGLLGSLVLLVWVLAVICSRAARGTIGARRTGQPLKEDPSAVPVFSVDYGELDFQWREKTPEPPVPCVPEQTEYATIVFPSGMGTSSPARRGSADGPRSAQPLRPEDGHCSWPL

Consider QTRTVPMPKIHHPPWQNVVP [peptide QP20], for which the “EC50 (read off the curve), Fold Inhibition of RLU” value was approximately 8 µM.

Values taken from patent US20180071385A1 (LEIDOS, published 2018).
